Measurements published in IntAct's records for PubMed 25283965.

B1: C-C chemokine receptor type 2 (Homo sapiens), P41597-2 (parent)
chain: MLSTSRSRFIRNTNESGEEVTTFFDYDYGAPCHKFDVKQIGAQLLPPLYSLVFIFGFVGNMLVVLILINCKKLKCLTDIYLLNLAISDLLFLITLPLWAHSAANEWVFGNAMCKLFTGLYHIGYFGGIFFIILLTIDRYLAIVHAVFALKARTVTFGVVTSVITWLVAVFASVPGIIFTKCQKEDSVYVCGPYFPRGWNNFHTIMRNILGLVLPLLIMVICYSGILKTLLRCRNEKKRHRAVRVIFTIMIVYFLFWTPYNIVILLNTFQEFFGLSNCESTSQLDQATQVTETLGMTHCCINPIIYAFVGEKFRRYLSVFFRKHITKRFCKQCPVFYRETVDGVTSTNTPSTGEQEVSAGL
partner: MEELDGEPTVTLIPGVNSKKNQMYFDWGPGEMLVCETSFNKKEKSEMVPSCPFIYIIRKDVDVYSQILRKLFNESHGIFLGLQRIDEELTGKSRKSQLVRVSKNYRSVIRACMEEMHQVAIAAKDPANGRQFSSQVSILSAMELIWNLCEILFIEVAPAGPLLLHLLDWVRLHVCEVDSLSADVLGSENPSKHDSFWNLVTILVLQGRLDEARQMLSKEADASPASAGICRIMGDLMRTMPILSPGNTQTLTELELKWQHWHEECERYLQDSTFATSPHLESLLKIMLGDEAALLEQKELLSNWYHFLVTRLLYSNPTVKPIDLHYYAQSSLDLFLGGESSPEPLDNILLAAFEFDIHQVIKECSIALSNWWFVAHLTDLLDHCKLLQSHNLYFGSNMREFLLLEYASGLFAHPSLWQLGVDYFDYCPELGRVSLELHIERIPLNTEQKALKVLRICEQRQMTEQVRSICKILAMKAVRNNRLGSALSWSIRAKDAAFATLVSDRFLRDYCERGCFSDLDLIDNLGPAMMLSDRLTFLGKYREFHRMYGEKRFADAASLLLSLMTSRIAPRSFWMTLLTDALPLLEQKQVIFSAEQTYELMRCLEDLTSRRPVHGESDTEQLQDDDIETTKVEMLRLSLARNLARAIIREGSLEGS

Variants of: B1
Settings: with nup85_human NUP85, Q9BW27

effect of a mutation on the interaction | Variant
decreasing interaction strength | L316T

Variants of: B1
Settings: with nup85_human NUP85, Q9BW27
Remark: another data set of the same source

effect of a mutation on the interaction | Variant
decreasing interaction strength | F319D
